T1: hFcµ-tFcµ-chi4 (human | Oncorhynchus mykiss (rainbow …))
T1 chain: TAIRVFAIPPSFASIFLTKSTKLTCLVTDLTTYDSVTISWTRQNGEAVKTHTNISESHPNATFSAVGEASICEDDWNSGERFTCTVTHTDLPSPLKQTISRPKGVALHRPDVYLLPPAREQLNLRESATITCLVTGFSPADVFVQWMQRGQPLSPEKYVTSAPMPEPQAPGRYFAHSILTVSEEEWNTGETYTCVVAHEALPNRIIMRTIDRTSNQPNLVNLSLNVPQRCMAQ


Assays:
[1] = target: full-length hFcµ expressed without JC (human, UniProt P01871 106-433); experiment: SEC-MALS; Superose 6 Increase 10/300, TBS buffer, 0.5 ml/min, 25 °C; 100 uL of protein at approximately 2 g/L; pIg peaks isolated from mIg by SEC before the analysis; conditions: both partners purified
hFcµ-tFcµ-chi4 = target: T1, hFcµ-tFcµ-chi4; experiment: as above; conditions: both partners purified

full-length hFcµ expressed without JC, sequence (P01871 106-433): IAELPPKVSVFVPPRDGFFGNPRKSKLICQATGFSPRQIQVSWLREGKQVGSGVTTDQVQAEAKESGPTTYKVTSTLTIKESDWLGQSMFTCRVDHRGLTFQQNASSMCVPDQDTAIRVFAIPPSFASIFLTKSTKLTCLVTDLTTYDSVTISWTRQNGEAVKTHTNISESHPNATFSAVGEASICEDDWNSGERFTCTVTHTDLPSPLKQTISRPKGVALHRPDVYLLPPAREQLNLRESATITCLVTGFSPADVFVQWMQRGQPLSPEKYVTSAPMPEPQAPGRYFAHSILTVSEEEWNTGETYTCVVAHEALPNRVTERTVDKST

| Binder | stoichiometry N [1] | stoichiometry N (hFcµ-tFcµ-chi4) |
| --- | --- | --- |
| full-length hFcµ expressed without JC (domain or fragment, N-glycosylated, disulfide-linked hexamer of Fc dimers without J chain. Secretory form with tailpiece. N-terminus taken at TAIRVF (T343 in the paper's numbering), as in the printed chimeras; entity …) TAIRVFAIPPSFASIFLTKSTKLTCLVTDLTTYDSVTISWTRQNGEAVKTHTNISESHPNATFSAVGEASICEDDWNSGERFTCTVTHTDLPSPLKQTISRPKGVALHRPDVYLLPPAREQLNLRESATITCLVTGFSPADVFVQWMQRGQPLSPEKYVTSAPMPEPQAPGRYFAHSILTVSEEEWNTGETYTCVVAHEALPNRVTERTVDKSTGKPTLYNVSLVMSDTAGTCY | 6 |  |
| hFcµ-tFcµ-chi4 (other, N-glycosylated; probable tetramer (P1), also a monomer fraction (P2) / N-glycosylated; probable tetramer (P1), also a monomer fraction (P2)) TAIRVFAIPPSFASIFLTKSTKLTCLVTDLTTYDSVTISWTRQNGEAVKTHTNISESHPNATFSAVGEASICEDDWNSGERFTCTVTHTDLPSPLKQTISRPKGVALHRPDVYLLPPAREQLNLRESATITCLVTGFSPADVFVQWMQRGQPLSPEKYVTSAPMPEPQAPGRYFAHSILTVSEEEWNTGETYTCVVAHEALPNRIIMRTIDRTSNQPNLVNLSLNVPQRCMAQ |  | ~4 |
